Experimental data from patent publication US20240166765A1 (ICONIC THERAPEUTICS, published 2024).
Numbering of substitutions follows the chain as printed. Read-outs that look alike come from different tables or passages of the source. Each block holds one binder with its values, some of them ahead of it.

Tests used:
h108-219_r = molecular target: T1, h108-219_r (human/rat chimera); assay: live cell staining, flow cytometry
T1 construct: on HEK293 cells
T1 chain: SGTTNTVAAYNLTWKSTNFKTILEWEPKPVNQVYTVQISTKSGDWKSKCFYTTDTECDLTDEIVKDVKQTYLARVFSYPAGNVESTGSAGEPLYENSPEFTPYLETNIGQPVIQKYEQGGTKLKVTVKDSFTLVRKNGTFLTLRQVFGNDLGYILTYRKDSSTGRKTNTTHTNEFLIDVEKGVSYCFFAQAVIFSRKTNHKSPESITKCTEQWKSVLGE

human TF ECD-His6 = molecular target: T2, human TF ECD-His6 (human, UniProt P13726 33-251); assay: BLI (ForteBio Octet)
T2 construct: made in Expi293 cells; the entry holds the ECD with the C-terminal TG-His6; also called TF-His; hTF

cynomolgus TF ECD-His6 = molecular target: T3, cynomolgus TF ECD-His6 (cynomolgus monkey (Macaca fascicularis)); assay: BLI (ForteBio Octet)
T3 construct: made in Expi293 cells; also called TF-His; cTF
T3 chain: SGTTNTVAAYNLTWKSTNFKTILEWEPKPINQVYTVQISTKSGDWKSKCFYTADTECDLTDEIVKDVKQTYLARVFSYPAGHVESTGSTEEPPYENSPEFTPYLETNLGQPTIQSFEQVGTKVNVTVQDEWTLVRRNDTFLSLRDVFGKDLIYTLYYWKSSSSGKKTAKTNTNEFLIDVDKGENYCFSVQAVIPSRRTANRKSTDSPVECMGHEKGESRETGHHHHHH

pig TF-His [1] = molecular target: T4, pig TF-His (pig (Sus scrofa)); assay: SPR (Biacore), antibody captured by anti-human IgG
T4 construct: also called pig TF ECD-His; pTF
T4 chain: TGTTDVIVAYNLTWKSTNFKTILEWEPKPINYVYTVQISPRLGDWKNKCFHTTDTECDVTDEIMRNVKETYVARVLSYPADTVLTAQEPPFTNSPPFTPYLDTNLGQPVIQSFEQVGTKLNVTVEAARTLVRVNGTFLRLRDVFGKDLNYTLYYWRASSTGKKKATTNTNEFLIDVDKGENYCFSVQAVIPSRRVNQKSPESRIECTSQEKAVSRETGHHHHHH

rabbit TF-His [2] = molecular target: T5, rabbit TF-His (rabbit (Oryctolagus cuniculus), UniProt P24055 33-250); assay: SPR (Biacore), antibody captured by anti-human IgG
T5 construct: also called rabbit TF ECD-His
T5 sequence (P24055 other isoform, or with tags, fused parts or gaps): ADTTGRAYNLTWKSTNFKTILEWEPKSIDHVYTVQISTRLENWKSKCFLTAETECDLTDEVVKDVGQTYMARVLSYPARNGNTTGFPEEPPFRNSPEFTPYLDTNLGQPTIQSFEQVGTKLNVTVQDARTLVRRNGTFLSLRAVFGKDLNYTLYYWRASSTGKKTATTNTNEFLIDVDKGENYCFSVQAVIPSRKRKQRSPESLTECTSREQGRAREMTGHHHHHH

pig TF-His [3] = molecular target: T6, pig TF-His (pig (Sus scrofa)); assay: SPR (Biacore), antibody captured by anti-human IgG on CM5 chip, pig TF-His in solution
T6 construct: also called pig TF ECD-His; pTF
T6 chain: T4 chain

rabbit TF-His [4] = molecular target: T7, rabbit TF-His (rabbit (Oryctolagus cuniculus), UniProt P24055 33-250); assay: SPR (Biacore), antibody captured by anti-human IgG on CM5 chip, rabbit TF-His in solution
T7 construct: also called rabbit TF ECD-His
T7 sequence (P24055 other isoform, or with tags, fused parts or gaps): as above

[5] = molecular target: T8, human Tissue Factor (hTF), endogenously expressed on human TF-positive cells (human, UniProt P13726 33-295); assay: cell-based or functional assay
[6] = molecular target: T9, pig TF ECD-His (pig TF-His) protein (pig (Sus scrofa)); assay: Biacore, antibody captured by anti-human IgG on CM5 chip, pig TF-His as analyte
T9 construct: Extracellular domain with a C-terminal TG-His6 tag, used as analyte in Biacore; also called pTF
T9 chain: T4 chain

[7] = molecular target: T8, human Tissue Factor (hTF), endogenously …; assay: flow cytometry competition on A431 cells, 100 nM unlabelled antibody, competitor 20 nM 25A-Alexa488
[8] = molecular target: T8, human Tissue Factor (hTF), endogenously …; assay: flow cytometry competition on A431 cells, 100 nM unlabelled antibody, competitor 20 nM 43Ea-Alexa488
rTF (rat TF) [9] = molecular target: T10, rTF (rat TF) (rat, UniProt P42533 29-252); assay: live cell staining, flow cytometry
T10 construct: Expressed on the surface of transfected HEK293 cells

h1-107_r = molecular target: T11, h1-107_r (human/rat chimera); assay: live cell staining, flow cytometry
T11 construct: on HEK293 cells
T11 chain: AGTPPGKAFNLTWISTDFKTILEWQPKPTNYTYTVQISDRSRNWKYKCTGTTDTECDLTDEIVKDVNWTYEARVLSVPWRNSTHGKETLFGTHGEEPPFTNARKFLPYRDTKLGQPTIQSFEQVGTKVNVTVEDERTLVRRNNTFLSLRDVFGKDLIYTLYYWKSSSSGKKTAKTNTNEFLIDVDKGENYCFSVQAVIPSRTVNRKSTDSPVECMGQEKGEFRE

h1-77_r = molecular target: T12, h1-77_r (human/rat chimera); assay: live cell staining, flow cytometry
T12 construct: Human TF with ECD residues 1-77 replaced by the rat segment; on HEK293 cells

h159-219_r = molecular target: T13, h159-219_r (human/rat chimera); assay: live cell staining, flow cytometry
T13 construct: on HEK293 cells

hTF = molecular target: T14, hTF (human, UniProt P13726 33-251); assay: live cell staining, flow cytometry
T14 construct: also called human TF; human Tissue Factor

rTF (rat TF) [10] = molecular target: T10, rTF (rat TF); assay: live cell staining, flow cytometry; remark: listed apart in the source
r141-194_h = molecular target: T15, r141-194_h (rat/human chimera, UniProt P42533 29-252); assay: live cell staining, flow cytometry
T15 construct: on HEK293 cells

hTF_K149N = molecular target: T16, hTF_K149N (human, UniProt P13726 33-251); assay: live cell staining, flow cytometry
T16 construct: on HEK293 cells; not shown: transmembrane and cytoplasmic part of the construct expressed on HEK293 cells
T16 chain: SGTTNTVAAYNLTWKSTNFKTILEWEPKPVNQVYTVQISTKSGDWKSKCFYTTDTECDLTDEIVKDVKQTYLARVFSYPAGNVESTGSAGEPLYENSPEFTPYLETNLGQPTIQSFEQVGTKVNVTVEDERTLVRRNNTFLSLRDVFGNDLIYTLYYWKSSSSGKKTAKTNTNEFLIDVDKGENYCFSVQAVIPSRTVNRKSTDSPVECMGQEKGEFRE

hTF_N171H_T197K = molecular target: T17, hTF_N171H_T197K (human, UniProt P13726 33-251); assay: live cell staining, flow cytometry
T17 construct: on HEK293 cells
T17 chain: T16 chain with N149K, N171H, T197K

B2: 1G (antibody, human IgG1, V domains shown)
VH: EVQLLESGGGLVQPGGSLRLSCAASGFTFSSYAMAWVRQAPGKGLEWVSAISGSGGLTYYADSVKGRFTISRDNSKNTLYLQMNSLRAEDTAVYYCAKAPYGYYMDVWGKGTTVTVSS
VL: not shown
notes: human IgG1
Kd (human TF ECD-His6): 2.2 nM | Kd (cynomolgus TF ECD-His6): 2.7 nM | binding result (pig TF-His [1]): no binding (tested: TF-His titration from 100 nM) | binding result (rabbit TF-His [2]): no binding (tested: TF-His titration from 100 nM)

B3: 1G (antibody, human IgG1, V domains shown)
VH: B2 VH
VL: not shown
notes: Human IgG1; also called antibody 1G
binding result (pig TF-His [3]): no binding | binding result (rabbit TF-His [4]): no binding

B4: anti-TF antibody 1G (antibody, human IgG1, V domains shown)
VH: B2 VH
VL: not shown
notes: Human IgG1
% GM-CSF, 2.56 nM antibody, MDA-MB-231 cells + FVIIa [5]: 34% | % GM-CSF, 6.4 nM antibody, MDA-MB-231 cells + FVIIa [5]: 9% | % GM-CSF, 16 nM antibody, MDA-MB-231 cells + FVIIa [5]: 7% | % GM-CSF, 40 nM antibody, MDA-MB-231 cells + FVIIa [5]: 7% | % GM-CSF, 100 nM antibody, MDA-MB-231 cells + FVIIa [5]: 7% | binding result [6]: no binding | % 25A binding [7]: 75% | % 43Ea binding [8]: 58%

B7: 29D (antibody, human IgG1, V domains shown)
VH: QVQLVESGGGVVQPGRSLRLSCAASGFTFHSRGMHWVRQAPGKGLEWVAVITYDGINKYYADSVEGRFTISRDNSKNTLYLQMNSLRAEDTAVYYCARDGVYYGVYDYWGQGTLVTVSS
VL: not shown
notes: human IgG1
Kd (human TF ECD-His6): 3.3 nM | Kd (cynomolgus TF ECD-His6): 12 nM | binding result (pig TF-His [1]): no binding (tested: TF-His titration from 100 nM) | binding result (rabbit TF-His [2]): no binding (tested: TF-His titration from 100 nM)

B8: 39A (antibody, human IgG1, V domains shown)
VH: QVQLVQSGAEVKKPGSSVKVSCKASGGTFSSNAIGWVRQAPGQGLEWMGSIIPIIGFANYAQKFQGRVTITADESTSTAYMELSSLRSEDTAVYYCARDSGYYYGASSFGMDVWGQGTTVTVSS
VL: EIVMTQSPATLSVSPGERATLSCRASQSVSSNLAWYQQKPGQAPRLLIYGASTRATGIPARFSGSGSGTEFTLTISSLQSEDFAVYYCEQYNNLPLTFGGGTKVEIK
notes: Human IgG1
Percent antibody binding to TF construct relative to hTF (rTF (rat TF) [9]): 0% | Percent antibody binding to TF construct relative to hTF (h1-107_r): 0% | Percent antibody binding to TF construct relative to hTF (h1-77_r): 0% | Percent antibody binding to TF construct relative to hTF (h159-219_r): 141% | Percent antibody binding to TF construct relative to hTF (hTF): 100% | Percent antibody binding to TF construct relative to hTF (rTF (rat TF) [10]): 0% | Percent antibody binding to TF construct relative to hTF (r141-194_h): 0% | Percent antibody binding to TF construct relative to hTF (hTF_K149N): 131% | Percent antibody binding to TF construct relative to hTF (hTF_N171H_T197K): 94%

Results, then the binder that gave them:

Percent antibody binding to TF construct relative to hTF (h108-219_r): 0%
B1: 5G9 (antibody, V domains shown)
VH: QVQLVESGGGVVQPGRSLRLSCKASGFNIKDYYMHWVRQAPGKGLEWIGLIDPENGNTIYDPKFQGRFTISADNSKNTLFLQMDSLRPEDTAVYYCARDNSYYFDYWGQGTPVTVSS
VL: DIQMTQSPSSLSASVGDRVTITCKASQDIRKYLNWYQQKPGKAPKLLIYYATSLADGVPSRFSGSGSGTDYTFTISSLQPEDIATYYCLQHGESPYTFGQGTKLEIT
notes: Previously described anti-TF antibody; also called humanized TF8-5G9; CNTO 860

% GM-CSF, 2.56 nM antibody, MDA-MB-231 cells + FVIIa [5]: 38% | % GM-CSF, 6.4 nM antibody, MDA-MB-231 cells + FVIIa [5]: 15% | % GM-CSF, 16 nM antibody, MDA-MB-231 cells + FVIIa [5]: 7% | % GM-CSF, 40 nM antibody, MDA-MB-231 cells + FVIIa [5]: 6% | % GM-CSF, 100 nM antibody, MDA-MB-231 cells + FVIIa [5]: 5% | binding result [6]: no binding | % 25A binding [7]: 70% | % 43Ea binding [8]: 64%
B5: anti-TF antibody 29D (antibody, human IgG1, V domains shown)
VH: B7 VH
VL: not shown
notes: Human IgG1

binding result (pig TF-His [3]): no binding | binding result (rabbit TF-His [4]): no binding
B6: 29D (antibody, human IgG1, V domains shown)
VH: B7 VH
VL: not shown
notes: Human IgG1; also called antibody 29D
